Reference: the supplement of paper PMC10567573

B1: ZNF8 (parent)
chain: KPYTCSVCGKSFSRTTCLFLHLRT
B2: IRX6 (parent)
chain: YPCLEKPRIWSLAHTATASAVEGA

Variants of: B1
Test: protein stability index of a GFP-peptide fusion (GPS, HEK-293T) (PSI 1-6); higher = more stable
Settings: c terminus: a fixed tail appended
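Further: lentivirally expressed fusions sorted by FACS into six bins by GFP to DsRed ratio, PSI derived from sequencing read proportions per bin multiplied by bin number.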

Protein stability index of substitutions, site by site:
T16: V 1.68 | Q 2.73 | F 1.39 | P 2.67 | C 1.94 | N 2.73 | R 1.82 | I 2.44 | A 2.16 | S 2.17 | K 1.56 | D 2.27 | G 2.6 | H 2.36 | Y 2.03 | E 2.25 | M 1.98 | W 2.19 | L 1.79
R14: A 2.39 | I 2.66 | W 1.66 | D 3.85 | G 1.89 | N 3.12 | M 1.68 | P 2.45 | H 2.3 | F 1.6 | V 3.3 | L 1.65 | S 3.13 | Y 1.93 | Q 3.25 | T 3.19 | E 2.7 | K 2.12 | C 3.41
F12: H 2.35 | D 2.22 | Y 2.15 | V 1.73 | R 1.62 | L 1.83 | K 2.88 | N 2.4 | P 1.75 | E 1.77 | W 1.72 | S 1.87 | G 2.27 | M 2.45 | A 1.76 | I 3.27 | C 1.54 | Q 1.58 | T 1.37
H21: S 2.04 | Y 1.57 | M 2.16 | K 2.04 | I 1.59 | W 1.75 | L 2.39 | A 2.18 | Q 2.28 | E 2.31 | F 1.65 | N 1.6 | D 1.35 | P 2.01 | G 1.94 | C 2.37 | T 1.56 | V 1.8 | R 1.4
L18: E 2.45 | A 2.19 | Y 2.43 | N 2.49 | C 2.31 | S 1.89 | V 2.27 | Q 2.11 | T 2.27 | P 2.32 | R 1.67 | F 1.95 | I 2.49 | G 2.44 | K 2.9 | H 1.96 | M 2.33 | W 2.18 | D 2.2
C17: E 3.61 | H 2.04 | T 2.42 | P 1.91 | L 2.39 | Q 2.58 | N 1.96 | D 3.67 | W 1.5 | R 2.35 | G 2.22 | I 2.14 | S 1.84 | M 2.13 | F 1.92 | Y 2.15 | K 2.35 | V 1.85 | A 2.19
G9: Q 1.89 | P 1.72 | S 1.72 | T 1.5 | N 1.49 | R 2.2 | Y 1.97
L20: Q 2.96 | A 2.66 | W 1.39 | E 3.07 | K 2.32 | M 1.74 | I 1.99 | G 2.1 | T 2.65 | Y 1.94 | N 2.56 | H 2.79 | R 2.42 | C 2.63 | S 2.17 | D 2.11 | P 2.27 | F 2.14
R23: S 1.83 | P 2.5 | A 2.29 | N 1.75 | T 1.95 | G 1.9 | D 1.91 | W 1.75 | E 2.26 | K 2.06 | Q 2.59 | M 2.23 | L 1.65 | I 2.05 | Y 1.84 | V 2 | F 1.64 | H 2.32 | C 2.06
L22: H 1.81 | F 1.82 | G 2.03 | R 2.34 | T 2.1 | C 2.24 | Y 1.8 | A 2.08 | M 3.01 | W 1.74 | S 2.11 | V 1.85 | E 2.31 | K 2.74 | N 2.57 | I 1.96 | P 2.78 | D 2.04
T24: C 2.07 | N 2.35 | V 2.2 | R 2.04 | W 2.5 | G 2.37 | E 1.67 | M 2.44 | D 2.12 | A 1.96 | I 1.52 | S 1.89 | F 2.02 | Q 1.9 | H 2.96 | Y 1.68 | L 1.58 | K 2.29 | P 2.19
S13: K 2.06 | L 1.48 | Y 1.75 | H 1.63 | F 1.82 | V 2.15 | E 2.57 | C 2.71 | Q 2.38 | I 1.67 | T 1.86 | W 1.87 | R 2 | G 1.62 | P 2.16 | D 1.94 | M 1.88 | A 2.43 | N 1.76
F19: T 1.78 | K 1.93 | A 1.98 | W 1.57 | D 2.79 | M 2.35 | R 2.35 | L 1.73 | P 2.45 | Q 2.54 | Y 2.44 | C 3.11 | I 1.91 | S 2.03 | N 2.36 | E 2.57 | V 1.9 | G 1.93 | H 2.26
T15: D 2.9 | L 2.29 | S 2.4 | R 2.58 | F 2.9 | C 2.49 | H 1.83 | E 2.64 | Y 2.31 | G 1.54 | A 2.45 | M 2.73 | V 2.44 | P 2.47 | Q 2.61 | I 2.62 | K 2.39 | N 2.02 | W 2.1
K10: P 2.84 | V 1.83 | Q 2.18 | F 1.85 | G 2.24 | N 2 | I 1.65 | R 1.87 | T 2.25 | C 1.77 | E 1.47 | W 2.83 | H 1.86 | Y 2.21 | L 1.94 | S 1.52 | M 2.88 | D 2.03 | A 1.79
S11: C 1.91 | I 2.33 | P 1.72 | E 2.67 | T 2.2 | G 1.51 | Q 2.21 | R 2.12 | L 1.69 | H 3.04 | A 2.08 | W 1.71 | F 1.72 | N 2.12 | V 1.84 | K 2.92 | M 1.76 | Y 2.2 | D 1.88

Variants of: B2
Test: as above
Settings: c terminus: a fixed tail appended

Protein stability index of substitutions, site by site:
C3: G 2.91 | H 2.16 | A 1.96 | F 3.06 | E 1.85 | I 1.74 | D 1.58
P2: V 2.51 | M 3.06 | T 3.4 | Y 2.69 | F 2.41 | A 2.82 | E 2.29 | L 1.88 | I 2.96 | K 2.82 | H 2.9 | R 2.37 | W 3.12 | N 4.81 | D 2.28 | Q 2.98 | S 1.7 | G 3.7
Y1: L 3.59 | A 4.1 | G 3.53 | E 4.33 | C 2.82 | H 2.54 | I 2.88 | N 3.84 | V 3.89 | R 3.33 | D 3.84 | T 3.36 | K 3.73 | M 3.83 | W 2.82 | S 3.81 | Q 3.79 | F 1.86 | P 4.08
